From patent US20140242080A1 (Hoffmann-La Roche, published 2014)

T1: hu-MCSP(D3 domain)-avi-his (human, UniProt Q6UVK1 1582-2224)
T1 construct: Recombinant D3 domain with avi and his tags; also called human MCSP(D3 domain)-avi-his; Human MCSP D3
T1 sequence: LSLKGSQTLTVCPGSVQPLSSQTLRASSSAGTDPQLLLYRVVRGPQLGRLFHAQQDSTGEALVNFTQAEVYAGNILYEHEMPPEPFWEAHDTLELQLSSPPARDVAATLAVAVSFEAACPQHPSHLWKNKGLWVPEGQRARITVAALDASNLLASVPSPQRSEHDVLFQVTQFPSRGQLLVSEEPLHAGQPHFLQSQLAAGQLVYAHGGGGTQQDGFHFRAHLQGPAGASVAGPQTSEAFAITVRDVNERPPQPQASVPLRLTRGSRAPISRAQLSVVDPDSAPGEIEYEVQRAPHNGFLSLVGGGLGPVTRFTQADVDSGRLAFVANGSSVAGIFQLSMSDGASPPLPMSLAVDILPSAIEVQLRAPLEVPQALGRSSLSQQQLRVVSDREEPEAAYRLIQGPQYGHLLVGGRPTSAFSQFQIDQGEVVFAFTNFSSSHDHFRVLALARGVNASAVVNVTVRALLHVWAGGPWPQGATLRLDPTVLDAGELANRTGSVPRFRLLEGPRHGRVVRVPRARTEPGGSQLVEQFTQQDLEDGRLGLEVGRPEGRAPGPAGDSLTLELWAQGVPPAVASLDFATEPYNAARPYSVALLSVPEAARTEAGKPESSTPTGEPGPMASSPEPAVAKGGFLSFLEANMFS

T2: cynomolgus MCSP D3 (cynomolgus, UniProt Q6UVK1 1582-2224 (human entry), limits assumed)
T2 construct: also called Cyno MCSP; cynomolgus homologue
T2 chain: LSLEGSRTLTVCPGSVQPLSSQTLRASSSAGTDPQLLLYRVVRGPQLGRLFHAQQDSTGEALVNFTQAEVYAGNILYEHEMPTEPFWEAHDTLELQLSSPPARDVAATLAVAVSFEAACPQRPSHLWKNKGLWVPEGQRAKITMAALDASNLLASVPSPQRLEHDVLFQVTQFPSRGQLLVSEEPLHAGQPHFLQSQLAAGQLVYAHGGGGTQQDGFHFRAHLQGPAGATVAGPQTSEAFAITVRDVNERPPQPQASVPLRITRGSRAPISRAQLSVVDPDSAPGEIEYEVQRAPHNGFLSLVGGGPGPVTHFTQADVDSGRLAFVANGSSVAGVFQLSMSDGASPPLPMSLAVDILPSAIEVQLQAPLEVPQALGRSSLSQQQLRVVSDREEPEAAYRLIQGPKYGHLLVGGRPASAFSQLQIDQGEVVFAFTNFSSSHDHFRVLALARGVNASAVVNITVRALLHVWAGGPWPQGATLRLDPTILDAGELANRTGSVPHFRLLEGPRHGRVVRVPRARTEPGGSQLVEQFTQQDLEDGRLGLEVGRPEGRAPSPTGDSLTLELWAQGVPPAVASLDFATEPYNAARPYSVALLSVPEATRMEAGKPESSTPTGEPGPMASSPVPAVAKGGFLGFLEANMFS


How the values were obtained:
[1] = target: T1, hu-MCSP(D3 domain)-avi-his; test: SPR ProteOn XPR36, 25 C; IgG captured via anti-human F(ab')2, MCSP D3 as analyte
cynomolgus MCSP D3 [2] = target: T2, cynomolgus MCSP D3; test: as above
[3] = target: T1, hu-MCSP(D3 domain)-avi-his; test: ratio of ProteOn IgG KD, parent M4-3/ML2 against variant
cynomolgus MCSP D3 [4] = target: T2, cynomolgus MCSP D3; test: as above

Kd [1] [nM]	Kd (cynomolgus MCSP D3 [2]) [nM]	Fold increase over parent [3] [fold]	Fold increase over parent (cynomolgus MCSP D3 [4]) [fold]	Binder
0.3	0.7	6.7	2.9	M4-3(A7)/ML2(E10) IgG (antibody, V domains shown, Human IgG1) VH: QVQLQESGPGLVKPSQTLSLTCTVSGGSITDGYYWNWIRQHPGKGLEWIGYITFDGRNNYNPSLKSRVTISRDTSKNQFSLKLSSVTAADTAVYYCADFDYWGQGTLVTVSS VL: DIQMTQSPSSLSASVGDRVTITCRASYGIRGYLNWYQQKPGKAPKLLIYYTSSLHSGVPSRFSGSGSGTDFTLTISSLQPEDFATYHCQQYSKLPWTFGQGTKVEIK
0.5	0.7	4	2.9	M4-3(B7)/ML2 IgG (antibody, V domains shown, Human IgG1) VH: QVQLQESGPGLVKPSQTLSLTCTVSGGSITSGYYWNWIRQHPGKGLEWIGYITFDGINNYNPSLKSRVTISRDTSKNQFSLKLSSVTAADTAVYYCADFDYWGQGTLVTVSS VL: DIQMTQSPSSLSASVGDRVTITCRASQGIRNYLNWYQQKPGKAPKLLIYYTSSLHSGVPSRFSGSGSGTDFTLTISSLQPEDFATYYCQQYSKLPWTFGQGTKVEIK
0.07	0.2	28.6	10	M4-3(A7)/ML2(G3) IgG (antibody, V domains shown, Human IgG1) VH: QVQLQESGPGLVKPSQTLSLTCTVSGGSITDGYYWNWIRQHPGKGLEWIGYITFDGRNNYNPSLKSRVTISRDTSKNQFSLKLSSVTAADTAVYYCADFDYWGQGTLVTVSS VL: DIQMTQSPSSLSASVGDRVTITCRASQGIRNYLNWYQQKPGKAPKLLIYYTSSLHSGVPSRFSGSGSGTDYTLTISSLQPEDFATYYCQQYSALPWTFGQGTKVEIK
0.8	1	2.5	2	M4-3(A7)/ML2 IgG (antibody, V domains shown, Human IgG1) VH: QVQLQESGPGLVKPSQTLSLTCTVSGGSITDGYYWNWIRQHPGKGLEWIGYITFDGRNNYNPSLKSRVTISRDTSKNQFSLKLSSVTAADTAVYYCADFDYWGQGTLVTVSS VL: DIQMTQSPSSLSASVGDRVTITCRASQGIRNYLNWYQQKPGKAPKLLIYYTSSLHSGVPSRFSGSGSGTDFTLTISSLQPEDFATYYCQQYSKLPWTFGQGTKVEIK
0.4	1	5	2	M4-3(D6)/ML2 IgG (antibody, V domains shown, Human IgG1) VH: QVQLQESGPGLVKPSQTLSLTCTVSGGSITSGYYWNWIRQHPGKGLEWIGYITFDGKNNYNPSLKSRVTISRDTSKNQFSLKLSSVTAADTAVYYCADFDYWGQGTLVTVSS VL: DIQMTQSPSSLSASVGDRVTITCRASQGIRNYLNWYQQKPGKAPKLLIYYTSSLHSGVPSRFSGSGSGTDFTLTISSLQPEDFATYYCQQYSKLPWTFGQGTKVEIK
0.9	1	2.2	2	M4-3(B8)/ML2 IgG (antibody, V domains shown, Human IgG1) VH: QVQLQESGPGLVKPSQTLSLTCTVSGGSITSGYYWNWIRQHPGKGLEWIGYITFDGRNNYNPSLKSRVTISRDTSKNQFSLKLSSVTAADTAVYYCADFDYWGQGTLVTVSS VL: DIQMTQSPSSLSASVGDRVTITCRASQGIRNYLNWYQQKPGKAPKLLIYYTSSLHSGVPSRFSGSGSGTDFTLTISSLQPEDFATYYCQQYSKLPWTFGQGTKVEIK
0.4	1	5	2	M4-3/ML2(C5) IgG (antibody, V domains shown, Human IgG1) VH: QVQLQESGPGLVKPSQTLSLTCTVSGGSITSGYYWNWIRQHPGKGLEWIGYITYDGSNNYNPSLKSRVTISRDTSKNQFSLKLSSVTAADTAVYYCADFDYWGQGTLVTVSS VL: DIQMTQSPSSLSASVGDRVTITCRASRGIREYLNWYQQKPGKAPKLLIYYTGSLHSGVPSRFSGSGSGTDFTLTISSLQPEDFATYYCQQYSELPWTFGQGTKVEIK
